Data as given in publication PMC7535908, “Dipeptidyl peptidase 3 modulates the renin–angiotensin system in mice” (The Journal of Biological Chemistry, 2020).

Assays:
[1] = molecular target: T1, purified recombinant human DPP3 (hDPP3) (Homo sapiens, UniProt Q9NY33); experiment: Single-injection ITC enzyme kinetics of angiotensin peptide hydrolysis by hDPP3; type: biochemical; conditions: for Substrate behaviour with DPP3 (heat signal, result in words): 5 µl of 2 mM peptide into 20 μM hDPP3, pH 8.0, 25 °C, no curve fitting possible for slow or poor substrates; for ΔH (enthalpy of interaction, heat of reaction) / kcat (maximum turnover number) / Km: 5 µl of 2 mM peptide into 200 µl of 20 μM hDPP3, 50 mM Tris-HCl pH 8.0, 100 mM NaCl, 25 °C, means ± S.D., three or more technical replicates from two biological replicates; for kcat (maximum turnover number) / Km: Michaelis–Menten fit, SD; for Km: read-out: Km (Michaelis–Menten constant)
T1 construct: made in house
T1 sequence (Q9NY33 1-737): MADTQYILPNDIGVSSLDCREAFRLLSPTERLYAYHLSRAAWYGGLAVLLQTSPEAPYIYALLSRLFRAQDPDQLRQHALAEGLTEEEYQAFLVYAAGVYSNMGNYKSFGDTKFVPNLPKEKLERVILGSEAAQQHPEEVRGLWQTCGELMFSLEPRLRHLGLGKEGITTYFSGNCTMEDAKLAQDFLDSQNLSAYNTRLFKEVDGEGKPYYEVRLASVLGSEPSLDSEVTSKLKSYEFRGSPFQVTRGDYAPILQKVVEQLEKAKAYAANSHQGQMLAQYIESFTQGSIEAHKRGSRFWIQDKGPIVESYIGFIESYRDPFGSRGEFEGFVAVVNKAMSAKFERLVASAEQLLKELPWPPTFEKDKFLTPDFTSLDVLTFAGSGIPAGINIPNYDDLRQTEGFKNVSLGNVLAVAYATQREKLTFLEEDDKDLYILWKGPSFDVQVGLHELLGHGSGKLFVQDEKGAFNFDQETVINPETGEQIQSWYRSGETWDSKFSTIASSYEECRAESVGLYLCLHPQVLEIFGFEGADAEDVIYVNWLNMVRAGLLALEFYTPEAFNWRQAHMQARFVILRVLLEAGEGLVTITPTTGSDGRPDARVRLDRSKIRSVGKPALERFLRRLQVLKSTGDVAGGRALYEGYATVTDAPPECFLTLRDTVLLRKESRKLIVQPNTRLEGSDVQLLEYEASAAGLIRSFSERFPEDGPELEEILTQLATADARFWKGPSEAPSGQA
From the text: Thus, we investigated the activity of DPP3 against different angiotensin peptides. Kinetic parameters of angiotensin peptides were obtained by single-injection calorimetry measurements that are based on the exothermal hydrolysis of peptide bonds by purified recombinant human DPP3, which shares 93% sequence identity with the mouse DPP3. […] The graphs show the rate of angiotensin conversion as a function of its concentration. The insets depict the raw data of heat change caused by the conversion of substrate peptides.
Figure 9. […] The reaction was started by injecting 5 µl of 2 mM angiotensin peptides to the calorimetric cell containing 20 μM hDPP3. The data represent three or more technical replicates from two biological replicates.
Calorimetric activity of six different angiotensin peptides as purported substrates of DPP3 were further assayed using a MicroCal PEAQ-ITC (Malvern Panalytical Ltd., Malvern, UK). […] For this, the single-injection method was used, in which 5 µl of 2 mM angiotensin peptide was titrated into 200 µl of 20 μM purified hDPP3. The purification of recombinant hDPP3 was done as described in Ref. [35]. Both the ligand and the purified protein were prepared in 50 mM Tris-HCl at pH 8.0 containing 100 mM NaCl. The experiments consisted of a single injection of the ligand continuously over a period of 10 s, including an initial delay of 180 s before the injection and a spacing of 300 s after the injection. The experiments were performed at 25 °C with a stirring speed of 500 rpm. The thermodynamic characterization of this binding interaction was obtained using MicroCal PEAQ-ITC analysis software.

[2] = molecular target: T2, purified recombinant human DPP3 (dipeptidyl peptidase 3) (human) (UniProt Q9NY33)
T2 sequence: T1 sequence (Q9NY33 1-737)

Km, single-injection ITC enzyme kinetics (hydrolysis of the peptide by hDPP3) [2] [µM]	kcat, single-injection ITC enzyme kinetics (hydrolysis of the peptide by hDPP3) [2] [s⁻¹]	Substance	Substrate behaviour with DPP3 (heat signal, result in words) [1]	also measured
		Ang I: angiotensin peptide (1–10), commercially purchased (Bachem), tested as purported substrate of DPP3 (DRVYIHPFHL)	poor substrate	
		Ang III: angiotensin peptide (2–8), commercially purchased (Bachem)	both endothermic and exothermic behavior	
		Ang IV: angiotensin peptide (3–8), commercially purchased (Bachem)	both endothermic and exothermic behavior	
		Ang(1–5): angiotensin peptide (1–5), commercially purchased (Bachem) (DRVYI)	“good” substrates	ΔH (enthalpy of interaction, heat of reaction) [1]: -7.7 ± -0.17 kJ/mol; kcat (maximum turnover number) [1]: 0.35 ± 0.002 s⁻¹; Km [1]: 12.5 ± 2.2 µM
		Ang(1–7): angiotensin peptide (1–7), commercially purchased (Bachem), main metabolite of the alternate RAS	“good” substrates	ΔH (enthalpy of interaction, heat of reaction) [1]: -6.36 ± -0.418 kJ/mol; kcat (maximum turnover number) [1]: 0.14 ± 0.003 s⁻¹; Km [1]: 1.95 ± 0.2 µM
12.5	0.35	angiotensin (1–5), Ang(1–5) (from UniProt P01019 25-29) (peptide)		ΔH (enthalpy of interaction, also called heat of reaction), single-injection ITC [2]: -7.7 kJ/mol
1.95	0.14	angiotensin (1–7), Ang(1–7) (from UniProt P01019 25-31) (peptide)		ΔH (enthalpy of interaction, also called heat of reaction), single-injection ITC [2]: -6.36 kJ/mol
8.4	0.25	angiotensin II, Ang II (1–8) (from UniProt P01019 25-32) (peptide)		
		tynorphin	“slow” substrates	
